Laboratory results: publication PMC9352680, “A comprehensive thermodynamic model for RNA binding by the Saccharomyces cerevisiae Pumilio protein PUF4”
Positions count from the first letter of the chain named. In names and notes the source's numbering stands.

T1: PUF4 RNA-binding domain (Saccharomyces cerevisiae, UniProt P25339 537-888)
T1 sequence: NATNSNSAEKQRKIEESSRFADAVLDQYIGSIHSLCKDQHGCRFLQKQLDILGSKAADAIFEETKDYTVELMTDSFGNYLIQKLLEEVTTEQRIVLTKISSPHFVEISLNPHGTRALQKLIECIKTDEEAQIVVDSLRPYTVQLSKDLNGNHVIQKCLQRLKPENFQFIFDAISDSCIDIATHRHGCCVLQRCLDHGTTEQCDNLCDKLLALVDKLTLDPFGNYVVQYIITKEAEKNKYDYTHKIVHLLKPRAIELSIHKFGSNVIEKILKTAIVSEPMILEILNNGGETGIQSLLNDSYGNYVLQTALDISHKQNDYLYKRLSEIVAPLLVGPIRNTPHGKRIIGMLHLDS

B1: Ic_S4_P4E.1_K4.1_C4.1_H4.1_A4.1_[T5C]_[A6G]_F4.1_[T8C]_[A9C]_T4.1 (ssRNA)
RNA: UUUGACAACUGAUCGUUCUUUCUUGUACGUCCUUCUUUCUCGAUCAGUUGUCUUU
B2: Ic_S4_P4E.1_K4.1_C4.1_H4.1_A4.1_[T5C]_[A6T]_[T7A]_F4.1_[T8A]_T4.1 (ssRNA)
RNA: B1 RNA with G29U, U30A, C31A, C32A
B3: Ic_S4_P4E.1_K4.1_C4.1_H4.1_A4.1_[T5C]_[A6C]_[T7G]_F4.1_[T8G]_[A9T]_T4.1 (ssRNA)
RNA: B1 RNA with G29C, U30G, C31G, C32U
B4: Ic_S4_P4E.1_K4.1_C4.1_H4.1_A4.1_[T5C]_[A6C]_F4.1_[T8G]_[A9C]_T4.1 (ssRNA)
RNA: B1 RNA with G29C, C31G
B5: Ic_S4_P4E.1_K4.1_C4.1_H4.1_A4.1_[T5C]_[A6C]_[T7A]_F4.1_[T8A]_[A9T]_T4.1 (ssRNA)
RNA: B1 RNA with G29C, U30A, C31A, C32U
B6: Ic_S4_P4E.1_K4.1_C4.1_H4.1_A4.1_[T5C]_[A6T]_[T7G]_F4.1_[A9T]_T4.1 (ssRNA)
RNA: B1 RNA with G29U, U30G, C31U, C32U
B7: Ic_S4_P4E.1_K4.1_C4.1_H4.1_A4.1_[T5C]_[A6G]_[T7A]_F4.1_[T8C]_[A9C]_T4.1 (ssRNA)
RNA: B1 RNA with U30A
B8: Ic_S4_P4E.1_K4.1_C4.1_H4.1_A4.1_[T5C]_[A6T]_[T7G]_F4.1_[T8C]_T4.1 (ssRNA)
RNA: B1 RNA with G29U, U30G, C32A
B9: Ic_S4_P4E.1_K4.1_C4.1_H4.1_A4.1_[T5C]_[A6C]_[T7C]_F4.1_[A9C]_T4.1 (ssRNA)
RNA: B1 RNA with G29C, U30C, C31U
B10: Ic_S4_P4E.1_K4.1_C4.1_H4.1_A4.1_[T5C]_[A6T]_[T7A]_F4.1_[T8C]_[A9G]_T4.1 (ssRNA)
RNA: B1 RNA with G29U, U30A, C32G
B11: Ic_S4_P4E.1_K4.1_C4.1_H4.1_A4.1_[T5C]_[A6G]_F4.1_[T8G]_[A9T]_T4.1 (ssRNA)
RNA: B1 RNA with C31G, C32U
B12: Ic_S4_P4E.1_K4.1_C4.1_H4.1_A4.1_[T5C]_[A6C]_F4.1_[A9T]_T4.1 (ssRNA)
RNA: B1 RNA with G29C, C31U, C32U
B13: Ic_S4_P4E.1_K4.1_C4.1_H4.1_A4.1_[T5C]_[A6C]_F4.1_[T8G]_[A9G]_T4.1 (ssRNA)
RNA: B1 RNA with G29C, C31G, C32G
B14: Ic_S4_P4E.1_K4.1_C4.1_H4.1_A4.1_[T5C]_[A6C]_[T7A]_F4.1_[A9T]_T4.1 (ssRNA)
RNA: B1 RNA with G29C, U30A, C31U, C32U
B15: Ic_S4_P4E.1_K4.1_C4.1_H4.1_A4.1_[T5C]_[A6T]_[T7G]_F4.1_[T8G]_[A9T]_T4.1 (ssRNA)
RNA: B1 RNA with G29U, U30G, C31G, C32U
B16: Ic_S4_P4E.1_K4.1_C4.1_H4.1_A4.1_[T5C]_[A6C]_[T7G]_F4.1_[T8C]_[A9G]_T4.1 (ssRNA)
RNA: B1 RNA with G29C, U30G, C32G
B17: Ic_S4_P4E.1_K4.1_C4.1_H4.1_A4.1_[T5C]_[A6C]_[T7C]_F4.1_[T8G]_[A9C]_T4.1 (ssRNA)
RNA: B1 RNA with G29C, U30C, C31G
B18: Ic_S4_P4E.1_K4.1_C4.1_H4.1_A4.1_[T5C]_[A6G]_[T7C]_F4.1_T4.1 (ssRNA)
RNA: B1 RNA with U30C, C31U, C32A
B19: Ic_S4_P4E.1_K4.1_C4.1_H4.1_A4.1_[T5C]_[A6C]_F4.1_[T8A]_T4.1 (ssRNA)
RNA: B1 RNA with G29C, C31A, C32A
B20: Ic_S4_P4E.1_K4.1_C4.1_H4.1_A4.1_[T5C]_[A6C]_[T7C]_F4.1_[T8C]_[A9G]_T4.1 (ssRNA)
RNA: B1 RNA with G29C, U30C, C32G
B21: Ic_S4_P4E.1_K4.1_C4.1_H4.1_A4.1_[T5C]_[A6T]_[T7A]_F4.1_[A9C]_T4.1 (ssRNA)
RNA: B1 RNA with G29U, U30A, C31U
B22: Ic_S4_P4E.1_K4.1_C4.1_H4.1_A4.1_[T5C]_[A6T]_[T7A]_F4.1_[T8A]_[A9C]_T4.1 (ssRNA)
RNA: B1 RNA with G29U, U30A, C31A
B23: Ic_S4_P4E.1_K4.1_C4.1_H4.1_A4.1_[T5C]_[A6C]_[T7A]_F4.1_[T8C]_[A9T]_T4.1 (ssRNA)
RNA: B1 RNA with G29C, U30A, C32U
B24: Ic_S4_P4E.1_K4.1_C4.1_H4.1_A4.1_[T5C]_[A6G]_F4.1_[T8C]_[A9G]_T4.1 (ssRNA)
RNA: B1 RNA with C32G
B25: Ic_S4_P4E.1_K4.1_C4.1_H4.1_A4.1_[T5C]_[A6G]_F4.1_[T8A]_[A9C]_T4.1 (ssRNA)
RNA: B1 RNA with C31A
B26: Ic_S4_P4E.1_K4.1_C4.1_H4.1_A4.1_[T5C]_[A6T]_[T7G]_F4.1_[T8C]_[A9G]_T4.1 (ssRNA)
RNA: B1 RNA with G29U, U30G, C32G

Target: T1, PUF4 RNA-binding domain
Experiment: Mg; RNA-MaP; 20 mM Na-HEPES pH 7.4, 30 mM KOAc, 0.75 mM MgCl2, 0.1% Tween-20, 5% glycerol, 0.1 mg/mL BSA, 2 mM DTT; 25 C; 0.0125-409.6 nM protein
Details: tags: N-His6-TEV cleaved; C-SNAP kept, Cy3B-labelled; label: tethered on chip by stalled RNA polymerase

B1 was tested. Which Kd did it give?
The Kd was 35 nM.

How did the Kd turn out when B2 was run?
Its Kd is 21.7 nM.

How did the Kd turn out when B3 was run?
The Kd was 2190 nM.

With B4 as the binder, how does the Kd read?
The Kd was 93 nM.

Which Kd does the source give for B5 here?
Its Kd is 45.5 nM.

Which Kd does the source give for B6 here?
The Kd was 54.6 nM.

For B7, which Kd is on record?
Its Kd is 994 nM.

Which Kd does the source give for B8 here?
Its Kd is 786 nM.

How did the Kd turn out when B9 was run?
The Kd was 31.2 nM.

How did the Kd turn out when B10 was run?
The Kd was 563 nM.

B11 was tested. Which Kd did it give?
The Kd was 33.7 nM.

Which Kd does the source give for B12 here?
The Kd was 10.8 nM.

For B13, which Kd is on record?
The Kd was 431 nM.

With B14 as the binder, how does the Kd read?
The Kd was 4.54 nM.

For B15, which Kd is on record?
Its Kd is 975 nM.

Which Kd does the source give for B16 here?
Its Kd is 827 nM.

With B17 as the binder, how does the Kd read?
Its Kd is 1190 nM.

Which Kd does the source give for B18 here?
The Kd was 2.22 nM.

Which Kd does the source give for B19 here?
The Kd was 15.7 nM.

How did the Kd turn out when B20 was run?
The Kd was 642 nM.

With B21 as the binder, how does the Kd read?
The Kd was 15.8 nM.

With B22 as the binder, how does the Kd read?
Its Kd is 404 nM.

B23 was tested. Which Kd did it give?
Its Kd is 47.1 nM.

How did the Kd turn out when B24 was run?
Its Kd is 395 nM.

Which Kd does the source give for B25 here?
The Kd was 316 nM.

With B26 as the binder, how does the Kd read?
Its Kd is 916 nM.

For UCUCUUUGUACAUAAUCUCUU (ssRNA) [Ic_S1_P4E.1_K4.1_C4.1_H4.1_A4.1_[T5C]_F4.1_[T8A]_T4.1], which Kd is on record?
The Kd was 6.09 nM.

How did the Kd turn out when UCUCUUUGUACAUCAUCUCUU (ssRNA) [Ic_S1_P4E.1_K4.1_C4.1_H4.1_A4.1_[T5C]_F4.1_[T8C]_T4.1] was run?
Its Kd is 8.45 nM.

How did the Kd turn out when UCUCUUUGUACAUGAUCUCUU (ssRNA) [Ic_S1_P4E.1_K4.1_C4.1_H4.1_A4.1_[T5C]_F4.1_[T8G]_T4.1] was run?
Its Kd is 20.2 nM.
